Test results as given in patent US20230203146A1 (Boehringer Ingelheim, published 2023).
Like-named read-outs stand apart in the source and are kept apart here.

Experiments:
[1] = target: T1, recombinant cynomolgus Ang2-FLD (cynomolgus); test: SPR (Biacore T100), binder on CM5 chip, Ang2-FLD as analyte
T1 construct: domain: FLD; also called cyno Ang2-FLD
Method: (§1) In brief, VHH and benchmark compounds are immobilized on a CM5 chip via amine coupling. […] Ang2-FLD species are allowed to associate for 2 min and to dissociate for 20 min at a flow rate of 45 μL/min. In between injections, the surfaces are regenerated with a 10 sec pulse of 25 mM NaOH and 60 sec stabilization period. Association/dissociation data are evaluated by fitting a 1:1 interaction model (Langmuir binding). The affinity constant KD is calculated from resulting association and dissociation rate constants kₐ and kd and are depicted in Table 8.

[2] = target: T2, recombinant human Ang2-FLD (human, UniProt O15123 275-496, limits assumed); test: as above
T2 construct: domain: FLD; not used
T2 sequence (looked up): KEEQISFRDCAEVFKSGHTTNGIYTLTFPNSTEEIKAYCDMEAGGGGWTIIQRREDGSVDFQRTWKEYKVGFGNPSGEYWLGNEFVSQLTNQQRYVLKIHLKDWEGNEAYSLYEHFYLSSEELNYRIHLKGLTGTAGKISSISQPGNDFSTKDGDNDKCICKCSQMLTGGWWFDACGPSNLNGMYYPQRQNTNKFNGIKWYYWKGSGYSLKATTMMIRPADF
Method: as §1

[3] = target: T3, recombinant mouse Ang2-FLD (mouse, UniProt O35608 275-496, limits assumed); test: as above
T3 construct: domain: FLD
T3 sequence (looked up): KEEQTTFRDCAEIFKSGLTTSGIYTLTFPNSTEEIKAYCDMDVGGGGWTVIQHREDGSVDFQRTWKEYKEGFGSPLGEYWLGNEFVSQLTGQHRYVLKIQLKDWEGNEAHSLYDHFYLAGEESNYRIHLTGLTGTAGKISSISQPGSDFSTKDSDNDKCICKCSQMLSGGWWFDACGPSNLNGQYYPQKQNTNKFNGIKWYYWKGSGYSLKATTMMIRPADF
Method: as §1

[4] = target: T4, N-terminally FLAG-tagged mouse Ang2 (HEK293T conditioned medium) (mouse, UniProt O35608 19-496); test: competition ELISA, FLAG-mAng2 on coated mTie2-Fc
T4 construct: may be a nucleotide entry; also called mAng2; FLAG-mAng2
T4 sequence: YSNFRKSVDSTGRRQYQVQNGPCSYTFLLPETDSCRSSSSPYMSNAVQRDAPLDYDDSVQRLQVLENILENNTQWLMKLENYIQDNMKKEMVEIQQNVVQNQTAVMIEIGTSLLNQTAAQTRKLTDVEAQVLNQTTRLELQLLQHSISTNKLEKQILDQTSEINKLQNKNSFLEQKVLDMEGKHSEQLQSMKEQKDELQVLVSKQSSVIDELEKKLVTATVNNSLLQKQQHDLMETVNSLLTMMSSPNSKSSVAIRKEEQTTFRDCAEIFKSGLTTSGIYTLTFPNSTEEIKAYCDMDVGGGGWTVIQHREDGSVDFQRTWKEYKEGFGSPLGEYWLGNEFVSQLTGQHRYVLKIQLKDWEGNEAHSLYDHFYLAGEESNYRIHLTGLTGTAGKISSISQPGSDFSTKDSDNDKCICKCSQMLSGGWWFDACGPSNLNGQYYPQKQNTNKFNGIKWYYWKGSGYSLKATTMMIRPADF
Method: (§2) In brief, 2 μg/mL of recombinant mouse Tie2-Fc or cyno Tie2-Fc is coated overnight at 4° C. in a 96-well MaxiSorp plate (Nunc, Wiesbaden, Germany). Coated wells are blocked with a 1% casein solution.

[5] = target: T5, N-terminally FLAG-tagged cynomolgus Ang2 (HEK293T conditioned medium) (cynomolgus, UniProt O15123 19-496 (human entry), limits assumed); test: competition ELISA, FLAG-cAng2 on coated cTie2-Fc
T5 construct: may be a nucleotide entry; also called cAng2; FLAG-cAng2
T5 chain: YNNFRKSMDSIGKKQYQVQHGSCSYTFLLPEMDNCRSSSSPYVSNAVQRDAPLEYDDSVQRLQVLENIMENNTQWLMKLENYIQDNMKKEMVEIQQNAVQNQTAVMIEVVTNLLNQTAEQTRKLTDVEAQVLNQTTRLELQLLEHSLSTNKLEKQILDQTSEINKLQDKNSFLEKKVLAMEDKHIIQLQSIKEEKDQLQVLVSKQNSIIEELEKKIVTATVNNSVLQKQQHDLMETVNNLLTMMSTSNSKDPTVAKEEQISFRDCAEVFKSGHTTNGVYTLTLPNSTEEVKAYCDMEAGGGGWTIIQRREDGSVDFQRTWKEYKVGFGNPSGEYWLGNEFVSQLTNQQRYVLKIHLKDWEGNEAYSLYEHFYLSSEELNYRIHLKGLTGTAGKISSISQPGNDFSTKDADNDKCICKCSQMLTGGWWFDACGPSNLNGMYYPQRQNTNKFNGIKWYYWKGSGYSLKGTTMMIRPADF
Method: as §2

[6] = target: T4, N-terminally FLAG-tagged mouse Ang2 …; test: competition ELISA, periplasmic extract, FLAG-mAng2 on mTie2/Fc
Method: In brief, human Tie2/Fc chimera (R&D Systems, Minneapolis, Minn., USA) is biotinylated using N-hydroxysulfosuccinimide ester of biotin (Thermo Fisher Scientific, Rockford, Ill., USA). […] To this mixture, the Acceptor beads and 0.3 nM biotinylated human Tie2/Fc chimeras are added and further incubated for 2 hours at room temperature. Finally, streptavidin conjugated Donor beads (Perkin Elmer, Waltham, Mass., US) are added and the mixture is incubated for an additional 2 hours at room temperature. Assay buffer is PBS+0.03% Tween-20+0.1% BSA. Fluorescence is measured using the Envision Multilabel Plate reader (Perkin Elmer, Waltham, Mass., USA) using an excitation wavelength of 680 nm and an emission wavelength of 520 nm. […] In brief, human or mouse Tie2/Fc chimera (R&D Systems, Minneapolis, Minn., USA) are immobilized at 2 μg/mL overnight at 4° C. in a 96-well MaxiSorp plate (Nunc, Wiesbaden, Germany). Wells are blocked with a 1% casein solution. […] This mixture is added to the Tie2/Fc coated well and incubated for 2 hours at room temperature. Residual binding of Ang is detected using HRP-conjugated anti-FLAG M2 antibody (Sigma, St Louis, Mo., USA).

[7] = target: T4, N-terminally FLAG-tagged mouse Ang2 …; test: competition ELISA, FLAG-mAng2 on coated mTie2-Fc; remark: listed apart in the source
Method: as §2

[8] = target: T6, FLAG-tagged cynomolgus Ang2 (cynomolgus, UniProt O15123 19-496 (human entry), limits assumed); test: competition ELISA: FLAG-cAng2 binding to coated cTie2-Fc
T6 construct: N-terminally FLAG-tagged, conditioned medium of HEK293T cells; also called cAng2; FLAG-cAng2
T6 chain: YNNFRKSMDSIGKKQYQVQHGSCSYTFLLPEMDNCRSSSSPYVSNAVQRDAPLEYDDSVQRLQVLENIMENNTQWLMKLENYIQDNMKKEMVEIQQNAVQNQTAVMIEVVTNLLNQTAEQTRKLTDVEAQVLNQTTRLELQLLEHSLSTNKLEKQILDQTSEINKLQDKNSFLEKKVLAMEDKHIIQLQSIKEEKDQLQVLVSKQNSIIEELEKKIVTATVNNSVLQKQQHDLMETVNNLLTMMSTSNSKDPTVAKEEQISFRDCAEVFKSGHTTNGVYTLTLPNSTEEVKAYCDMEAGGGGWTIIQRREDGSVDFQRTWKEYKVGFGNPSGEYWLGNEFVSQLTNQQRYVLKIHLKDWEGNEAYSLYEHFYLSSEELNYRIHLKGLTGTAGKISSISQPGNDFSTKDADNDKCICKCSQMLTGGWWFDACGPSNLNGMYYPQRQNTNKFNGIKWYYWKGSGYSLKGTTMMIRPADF
Method: as §2

FLAG-tagged mouse Ang2 [9] = target: T7, FLAG-tagged mouse Ang2 (mouse, UniProt O35608 19-496); test: competition ELISA: FLAG-mAng2 binding to coated mTie2-Fc
T7 construct: N-terminally FLAG-tagged, conditioned medium of HEK293T cells; also called mAng2; FLAG-mAng2
T7 sequence: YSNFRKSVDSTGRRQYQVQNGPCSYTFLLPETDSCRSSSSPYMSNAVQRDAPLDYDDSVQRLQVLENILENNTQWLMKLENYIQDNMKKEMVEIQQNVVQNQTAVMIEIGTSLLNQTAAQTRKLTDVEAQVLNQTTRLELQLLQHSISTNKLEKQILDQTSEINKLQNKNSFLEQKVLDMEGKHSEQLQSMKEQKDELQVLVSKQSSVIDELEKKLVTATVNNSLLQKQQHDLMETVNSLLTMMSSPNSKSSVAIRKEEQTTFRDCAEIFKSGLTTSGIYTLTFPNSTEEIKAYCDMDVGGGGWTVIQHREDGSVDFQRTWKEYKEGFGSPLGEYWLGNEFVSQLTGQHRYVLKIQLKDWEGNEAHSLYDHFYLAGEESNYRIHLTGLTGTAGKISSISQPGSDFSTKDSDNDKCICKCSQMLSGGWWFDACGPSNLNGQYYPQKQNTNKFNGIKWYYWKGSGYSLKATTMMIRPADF
Method: as §2

FLAG-tagged mouse Ang2 [10] = target: T7, FLAG-tagged mouse Ang2; test: as above; remark: listed apart in the source
Method: as §2

FLAG-tagged mouse Ang2 [11] = target: T7, FLAG-tagged mouse Ang2; test: as above; remark: listed apart in the source
Method: as §2

[12] = target: T6, FLAG-tagged cynomolgus Ang2; test: competition ELISA: FLAG-cAng2 binding to coated cTie2-Fc
Method: as §2

[13] = target: T6, FLAG-tagged cynomolgus Ang2; test: as above
Method: as §2

B1: VHH 24B05 (VHH)
VHH: EVQLVESGGGLVQPGGSLRLSCAASGFTLDYYAIGWFRQAPGKEWEGVSCISSSDGSTYYADSVKGRFTISRDNAKNTVYLQMNSLKPEDTAVYYCATDSIVCGSYYGMDYWGKGTQVTVSS
notes: also called 024B05; not shown: C-terminal c-myc tag and His6 tag
Kd [1]: 0.59 nM | koff [1]: 0.0024 s⁻¹ | kon [1]: 4.1e+06 M⁻¹ s⁻¹ | Kd [2]: 0.96 nM | koff [2]: 0.0025 s⁻¹ | kon [2]: 2.6e+06 M⁻¹ s⁻¹ | Kd [3]: 1.7 nM | koff [3]: 0.0029 s⁻¹ | kon [3]: 1.7e+06 M⁻¹ s⁻¹ | IC50 [4]: 1.5 nM | IC50 [5]: 2.1 nM | % inh [6]: 98% | IC50 [7]: 1.1 nM

B2: VHH 00932 (VHH, not shown: small tags and cut ends)
VHH: EVQLVESGGGLVQPGGSLRLSCAVSGITLDDYAIGWFRQAPGKEREGVSSIRDNGGSTYYADSVKGRFTISSDNSKNTVYLQMNSLRPEDTAVYYCAAVPAGRLRYGEQWYPIYEYDAWGQGTLVTVSS
notes: Cycle 3 variant of 28D10 on the 00908 backbone
IC50 [8]: 0.054 nM | IC50 (FLAG-tagged mouse Ang2 [9]): 0.038 nM

B3: VHH 00933 (VHH, not shown: small tags and cut ends)
VHH: EVQLVESGGGLVQPGGSLRLSCAASGITLDDYAIGWFRQAPGKEREGVSAIRDNGGSTYYADSVKGRFTISSDNSKNTVYLQMNSLRPEDTAVYYCAAVPAGRLRYGEQWYPIYEYDAWGQGTLVTVSS
notes: as for B2
IC50 [8]: 0.071 nM | IC50 (FLAG-tagged mouse Ang2 [9]): 0.062 nM

B4: VHH 00935 (VHH, not shown: small tags and cut ends)
VHH: EVQLVESGGGLVQPGGSLRLSCAASGITLDDYAIGWFRQAPGKEREGVSAIRSSGGSTYYADSVKGRFTISSDNSKNTVYLQMNSLRPEDTAVYYCAAVPAGRLRYGEQWYPIYEYDAWGQGTLVTVSS
notes: as for B2
IC50 [8]: 0.069 nM | IC50 (FLAG-tagged mouse Ang2 [9]): 0.078 nM

B5: VHH 37F02 (VHH, not shown: small tags and cut ends)
VHH: EVQLVESGGGLVQPGGSLRLSCAASGFALDYYAIGWFRQAPGKEREGVSCISSSDGITYYVDSVKGRFTISRDNAKNTVYLQMNSLKPEDTAVYYCATDSGGYIDYDCMGLGYDYWGQGTQVTVSS
notes: Parental llama VHH; also called 037F02
IC50 (FLAG-tagged mouse Ang2 [10]): 0.11 nM | IC50 (FLAG-tagged mouse Ang2 [11]): 0.11 nM | IC50 [12]: 0.15 nM | IC50 [13]: 0.15 nM

B6: VHH 00920 (VHH, not shown: small tags and cut ends)
VHH: EVQLVESGGGLVQPGGSLRLSCAASGFALDYYAIGWFRQAPGKEREGVSCISSSGGITYYADSVKGRFTISRDNSKNTVYLQMNSLRPEDTAVYYCATDSGGYIDYDCMGLGYDYWGQGTLVTVSS
IC50 (FLAG-tagged mouse Ang2 [10]): 0.15 nM | IC50 [13]: 0.23 nM

B7: VHH 00926 (VHH, not shown: small tags and cut ends)
VHH: EVQLVESGGGLVQPGGSLRLSCAASGFALDYYAIGWFRQAPGKEREGVSCISSSGGITYYADSVKGRFTISRDNSKNTVYLQMNSLRPEDTAVYYCATDSGGYIDYDCQGLGYDYWGQGTLVTVSS
IC50 (FLAG-tagged mouse Ang2 [10]): 0.2 nM | IC50 [13]: 0.29 nM

B8: VHH 00927 (VHH, not shown: small tags and cut ends)
VHH: EVQLVESGGGLVQPGGSLRLSCAASGFALDYYAIGWFRQAPGKEREGVSCISSSGGITYYADSVKGRFTISRDNSKNTVYLQMNSLRPEDTAVYYCATDSGGYIDYDCRGLGYDYWGQGTLVTVSS
IC50 (FLAG-tagged mouse Ang2 [10]): 0.19 nM | IC50 [13]: 0.33 nM

B9: VHH 00929 (VHH, not shown: small tags and cut ends)
VHH: EVQLVESGGGLVQPGGSLRLSCAASGFALDYYAIGWFRQAPGKEREGVSCISSSGGITYYADSVKGRFTISRDNSKNTVYLQMNSLRPEDTAVYYCATESGGYIDYDCQGLGYDYWGQGTLVTVSS
IC50 (FLAG-tagged mouse Ang2 [10]): 0.15 nM | IC50 [13]: 0.25 nM

B10: VHH 00930 (VHH, not shown: small tags and cut ends)
VHH: EVQLVESGGGLVQPGGSLRLSCAASGFALDYYAIGWFRQAPGKEREGVSCISSSGGITYYADSVKGRFTISRDNSKNTVYLQMNSLRPEDTAVYYCATESGGYIDYDCRGLGYDYWGQGTLVTVSS
IC50 (FLAG-tagged mouse Ang2 [10]): 0.17 nM | IC50 [13]: 0.31 nM

B11: VHH 00931 (VHH, not shown: small tags and cut ends)
VHH: EVQLVESGGGLVQPGGSLRLSCAASGFALDYYAIGWFRQAPGKEREGVSCISSSGGITYYADSVKGRFTISRDNSKNTVYLQMNSLRPEDTAVYYCATESGGYIDYDCSGLGYDYWGQGTLVTVSS
IC50 (FLAG-tagged mouse Ang2 [10]): 0.15 nM | IC50 [13]: 0.29 nM
